Reference: article PMC3422313

Key:
[1] = molecular target: p24:V3 CC mutant (chimeric p24:V3 protein with A14C/E45C in the p24 sequence) (HIV) (UniProt P12493); experiment: cross-linking; disulfide cross-linking by dialysis into assembly buffer (50 mM Tris pH 8, 1 M NaCl) with beta ME reduced to 20 mM or lower; read by non-reducing SDS-PAGE, 10% gel
[2] = molecular target: human monoclonal anti-V3 antibody 447-52D (ARP3219) (human); experiment: SPR; BIAcore 3000; mAb 447-52D immobilised on CM5 by EDC/NHS (about 2000 RU); p24:V3 proteins as analyte 0.10-4.0 uM; HBS (10 mM Hepes, 150 mM NaCl, 3 mM EDTA, pH 7.4), 0.1 mM TCEP; 20 ul/min; 25 C; 1:1 Langmuir fit
[3] = molecular target: p24:V3 WT chimera (HIV p24 CA protein with the full V3 loop in place of the cyclophillin binding loop) (HIV) (UniProt P12493); experiment: SEC; Superdex-200 PC; 30 mM Tris pH 8.0, 300 mM NaCl, 2 mM bME; 0.04 mL/min; compared with aldolase (158 kDa) and ferritin (440 kDa)
[4] = molecular target: p24:V3 CCAA mutant (chimeric p24:V3 protein with A14C/E45C/W184A/M185A in the p24 sequence) (HIV); experiment: cross-linking; disulfide cross-linking by dialysis into assembly buffer (50 mM Tris pH 8, 1 M NaCl) with beta ME reduced to 20 mM or lower; read by non-reducing SDS-PAGE, 10% gel
[5] = molecular target: p24:V3 CCAA mutant (chimeric p24:V3 protein with A14C/E45C/W184A/M185A in the p24 sequence) (HIV); experiment: SEC; Superdex-200 PC; 30 mM Tris pH 8.0, 300 mM NaCl, 2 mM bME; 0.04 mL/min; compared with aldolase (158 kDa) and ferritin (440 kDa)

Chain of human monoclonal anti-V3 antibody 447-52D (ARP3219) (human) (heavy, as listed by the source, chain 1 of 2): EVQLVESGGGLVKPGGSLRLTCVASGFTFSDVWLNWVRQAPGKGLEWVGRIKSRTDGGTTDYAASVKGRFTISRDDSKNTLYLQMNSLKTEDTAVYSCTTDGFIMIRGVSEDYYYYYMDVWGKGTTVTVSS
Chain of human monoclonal anti-V3 antibody 447-52D (ARP3219) (human) (light, as listed by the source, chain 2 of 2): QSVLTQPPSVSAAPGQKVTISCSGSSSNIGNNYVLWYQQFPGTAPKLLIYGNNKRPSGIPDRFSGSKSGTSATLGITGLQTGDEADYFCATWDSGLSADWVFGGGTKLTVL

Substance	stoichiometry N [1]	Kd [2] [µM]	stoichiometry N [3]	stoichiometry N [4]	stoichiometry N [5]
p24:V3 CC mutant (chimeric p24:V3 protein with A14C/E45C in the p24 sequence) (from UniProt P12493 101-500)	6	13.4			
p24:V3 WT chimera (HIV p24 CA protein with the full V3 loop in place of the cyclophillin binding loop) (from UniProt P12493 1-85; P12493 101-500)		10.1	6		
p24:V3 CCAA mutant (chimeric p24:V3 protein with A14C/E45C/W184A/M185A in the p24 sequence)				6	6
